{"source": "patent US20040110161", "key": {"[1]": {"molecular_target": "T1, MBP-MutS fusion (Cy5-labeled) (Escherichia coli) (UniProt P23909)", "T1 sequence": "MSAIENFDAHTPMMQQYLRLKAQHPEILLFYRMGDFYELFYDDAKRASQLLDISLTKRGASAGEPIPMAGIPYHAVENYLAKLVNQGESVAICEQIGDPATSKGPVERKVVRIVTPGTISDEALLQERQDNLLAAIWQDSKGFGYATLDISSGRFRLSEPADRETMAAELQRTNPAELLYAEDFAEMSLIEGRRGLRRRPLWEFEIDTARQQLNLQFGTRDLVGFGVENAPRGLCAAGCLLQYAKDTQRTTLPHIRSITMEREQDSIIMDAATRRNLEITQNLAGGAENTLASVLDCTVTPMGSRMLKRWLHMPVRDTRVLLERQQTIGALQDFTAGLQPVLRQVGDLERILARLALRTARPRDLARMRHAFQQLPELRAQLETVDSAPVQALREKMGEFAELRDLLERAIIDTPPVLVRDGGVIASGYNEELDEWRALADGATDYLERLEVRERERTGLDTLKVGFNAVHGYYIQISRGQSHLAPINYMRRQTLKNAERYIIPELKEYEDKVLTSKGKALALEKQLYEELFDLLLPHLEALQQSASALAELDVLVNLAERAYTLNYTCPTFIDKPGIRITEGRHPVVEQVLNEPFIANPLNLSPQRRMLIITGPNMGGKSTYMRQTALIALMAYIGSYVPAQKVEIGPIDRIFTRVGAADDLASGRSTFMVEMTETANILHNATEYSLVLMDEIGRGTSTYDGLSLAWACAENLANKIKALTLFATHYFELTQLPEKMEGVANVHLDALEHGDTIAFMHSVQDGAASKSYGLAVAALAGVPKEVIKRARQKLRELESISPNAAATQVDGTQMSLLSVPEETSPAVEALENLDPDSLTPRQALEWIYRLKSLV", "settings": "with nuclease and SSB"}, "[2]": {"molecular_target": "T2, MutS (Cy5-labeled) (Escherichia coli) (UniProt P23909)", "T2 sequence": "T1 sequence", "settings": "mung bean nuclease and SSB treated hydrogel chip"}}, "data": [{"sequence": "AGTGGTAATCTACTGGGACGGAACAGCTTTGAGGTGCGTGTTTGTGCCTGTCCTGGGAGAGACCGGCGCACAG (double strand) [cExon8/SW-480 PCR product]", "values": [{"measurement": "binding signal (fluorescence units)", "setting": "[1]", "value": 168}, {"measurement": "binding signal (fluorescence units)", "setting": "[2]", "value": 461}]}]}
